Test [1] addresses spike glycoprotein of wild type SARS-CoV-2 virus (SARS-CoV-2, UniProt P0DTC2 14-1273). Briefly: cell-based or functional assay.
A further test concerns the target T1, SARS spike S1 subunit (severe acute respiratory syndrome …, UniProt P59594 14-667).
T1 construct: domain: S1 subunit
Briefly: ELISA. On the technique in general: In an ELISA, binding on a coated surface is turned into a signal by an enzyme label.

For test [2], the target named is T2, SARS-CoV-2 spike S2 subunit (SARS-CoV-2, UniProt P0DTC2 686-1213).
T2 construct: domain: S2 subunit
The experiment in a line: ELISA.

Test [3] addresses T3, SARS-CoV-2 spike receptor binding domain (RBD) (SARS-CoV-2, UniProt P0DTC2 319-541).
T3 construct: also called SARS-CoV-2 RBD
The experiment in a line: ELISA.

For test [4], the target named is T4, MERS spike extracellular domain (Middle East respiratory syndrome …, UniProt K9N5Q8 18-1296).
T4 construct: extracellular domain
The experiment in a line: ELISA.

The target of test [5] is T5, Human coronavirus OC43 spike extracellular domain (human coronavirus OC43, UniProt P36334 14-1297).
T5 construct: extracellular domain
The experiment in a line: ELISA.

Test [6] has as its target T6, SARS-CoV-2 nucleocapsid protein (SARS-CoV-2, UniProt P0DTC9 1-419).
T6 construct: also called N protein
The experiment in a line: ELISA on recombinant protein.

The record followed here is patent US20230279079A1 (CHANG GUNG MEMORIAL HOSPITAL LINKOU, published 2023).

B1: FD 1E (antibody, V domains shown)
VH: EVQLLESGGGLVKPGGSLRLSCAASGFTFSSYSMNWVRQAPGKGLEWVSSISSSSSYIYYADSVKGRFTISRDNAKNSLYLQMNSLRAEDTAVYYCASLAAAGPETYYYYGMDVWGQGTMVTVSS
VL: not shown
As to B1, in test [1], the “Neutralization by PRNT EC50” value stood at 110 nM. Moreover, the binding result (in the test with SARS spike S1 subunit; in test [2]; in test [3]; in test [4]; in test [5]) was “no binding” each time.

B2: FD 11E (antibody, V domains shown)
VH: EVQLVESGGGLVKPGGSLRLSCAASGFTFSSYSMNWVRQAPGKGLEWVSSISSSSSYIYYADSVKGRFTISRDNAKNSLYLQMNSLRAEDTAVYYCASLAAAGPETYYYYGMDVWGQGTMVTVSS
VL: not shown
For B2, in test [1], the “Neutralization by PRNT EC50” value was found to be 70 nM. Besides, the binding result (with SARS spike S1 subunit; in test [2]; in test [3]; in test [4]; in test [5]) was “no binding” in each case.

B3: EZ 4A (antibody, V domains shown)
VH: EVQLVQSGAEVKKPGESLKISCKGSGYSFTSYWIGWVRQMPGKGLEWMGIIYPGDSDTRYSPSFQGQVTISADKSISTAYLQWSSLKASDTAMYYCARSPIAADLFDYWGQGTLVTVSS
VL: not shown
For B3, in test [6], the binding result is given as “binds”.

B4: FI 1C (antibody, V domains shown)
VH: EVQLVESGGGLVKPGGSLRLSCAASGFTFSDYYMSWIRQAPGKGLEWVSYISSSGSTIYYADSVKGRFTISRDNAKNSLYLQMNSLRAEDTAVYYCARRSNRFLIAFDIWGQGTMVTVSS
VL: QSALTQPASVSGSPGQTITISCTGTSSDVGGYNYVSWYQQHPGKAPKLMIYEVSNRPSGVSNRFSGSKSGNTASLTISGLQAEDEADYYCSSYTSSSTLVVFGGGTKLTVP
For B4, the “Neutralization by FMNT EC50” value in test [1] worked out at 2.24 nM. Also, the “Neutralization by PRNT EC50” value in test [1] is 16.7 nM. For the same molecule, the binding result (with SARS spike S1 subunit; in test [2]; in test [4]; in test [5]) was “no binding” in each case.

B5: EZ 7B (antibody, V domains shown)
VH: EVQLVESSPGLVKPSETLSLTCTVSGGSISSYYWSWIRQPPGKGLEWIGYIYYSGSTNYNPSLKSRVTISVDTSKNQFSLKLSSVTAADTAVYYCARRVFGPVLPSKLGGSYWGGGAFDIWGQGTMVTVSS
VL: not shown
In the case of B5, the binding result in test [6] is “binds”.

B6: FD 7D (antibody, V domains shown)
VH: EVQLVESGAEVKKPGESLRISCKGSGYSFTSYWISWVRQMPGKGLEWMGRIDPSDSYTNYSPSFQGHVTISADKSISTAYLQWSSLKASDTAMYYCARHSDCSSTSCYFVDAFDIWGQGTMVTVSS
VL: not shown
For B6, the binding result (with SARS spike S1 subunit; in test [2]; in test [3]; in test [4]; in test [5]) was “no binding” in each case.

B7: FJ 1C (antibody, V domains shown)
VH: QVQLQESGPGLVKPSETLSLTCTVSGYSISSGYYWGWIRQPPGKGLEWIGSIYHSGSTYYNPSLKSRVTISVDTSKNQFSLKLSSVTAADTAVYYCARDKALLWFGELFTNLFDYWGQGTLVTVSS
VL: QSALTQPASVSGSPGQSITISCTGTSSDVGGYNYVSWYQQHPGKAPKLMIYEVSNRPSGVSNRFSGSKSGNTASLTISGLQAEDEANYYCSSYTSSSTLVFGGGTKLTVL
On to B7, for which, in test [1], the “Neutralization by PRNT EC50” value was 55.5 nM. Besides, the binding result is on record as “binds” with SARS spike S1 subunit; “no binding” in test [2]; “no binding” in test [3]; “no binding” in test [4]; “no binding” in test [5].

B8: FD 4C (antibody, V domains shown)
VH: EVQLVESGPGLVKPSQTLSLTCTVSGGSISSGGYYWSWIRQHPGKGLEWIGYIYYSGSTYYNPSLKSRVTISVDTSKNQFSLKLSSVTAADTAVYYCARVRSSSSWYFDYWGQGTLVTVSS
VL: QSVLTQPASVSGSPGQSITISCTGTSSDVGGYNYVSWYQQHPGKAPKLMIYDVSKRPSGVSNRFSGSKSGNTASLTISGLQAEDEADYYCSSYTSKWVFGGGTKLTVL
Consider B8, for which the binding result in test [6] was “binds”.

B9: EY 5A (antibody, V domains shown)
VH: EVQLVESGPGLVKPSGTLFLTCTVSGGSISNYYWSWIRQPPGKALEWIGFIYSNGNTDYNPSLQSRVTISGDTSKNQFSLNLRSVTAADTAVYYCARGPGPATGGSLDYWGQGTMVTVSS
VL: not shown
For the molecule B9, the binding result in test [6] was “binds”.

B10: EY 8A (antibody, V domains shown)
VH: EVQLVESGPGLVKPSQTLSLTCTVSGGSISSGSYYWSWIRQPAGKGLEWIGRIYTSGSTNYNPSLKSRVTISVDTSKNQFSLKLSSVTAADTAVYYCAKGHVISGYDDYYYYYGMDVWGQGTTVTVSS
VL: not shown
Regarding B10, the binding result in test [6] was “binds”.

B11: FD 11C (antibody, V domains shown)
VH: EVQLLESGPGLVKPSETLSLTCTVSGGSISSSSYYWGWIRQPPGKGLEWIGSIYYSGSTYYNPSLKSRVTISVDTSKNQFSLKLSSVTAADTAVYYCAREYYYGSETKKYYYYYGMDVWGQGTTVTVSS
VL: not shown
For B11, the binding result (in the test with SARS spike S1 subunit; in test [2]; in test [3]; in test [4]; in test [5]) was “no binding” each time.

B12: FD 8B (antibody, V domains shown)
VH: EVQLLESGAEVKKPGASVKVSCKVSGYTLTELSMHWVRQAPGKGLEWMGGFDPEDGETIYAQKFQGRVTMTEDTSTDTAYMELSSLRSEDTAVYYCATAAAINCSSTSCYYYYYYYGMDVWGQGTTVTVSS
VL: not shown
With B12, the binding result (with SARS spike S1 subunit; in test [2]; in test [3]; in test [4]; in test [5]) was “no binding” throughout.

B13: EY 6A-1 (antibody, V domains shown)
VH: EVQLVESGGGVVQPGRSLRLSCAASAFTFSSYDMHWVRQAPGKGLEWVAVISYDGSNKYYADSVKGRFTISRDNSKNTLYLQMNSLRAEDTAVYYCAKDGGKLWVYYFDYWGQGTLVTVSS
VL: not shown
Turning to B13, in test [1], the “Neutralization by FMNT EC50” value is 22.5 nM. Further, the “Neutralization by PRNT EC50” value in test [1] amounted to 133 nM. Moreover, the binding result is on record as “binds” in the test with SARS spike S1 subunit, “no binding” in test [2], “no binding” in test [4] and “no binding” in test [5].

B14: FG 12C (antibody, V domains shown)
VH: EVQLVESGGGLVQPGRSLRLSCAASGFTFDDYAMHWVRQAPGKGLEWVSGISWNSGSIGYADSVKGRFTISRDNAKNSLYLQMNSLRAEDTALYYCAKDMRVHDYGDYYFDYWGQGTLVTVSS
VL: SYELTQPPSVSVAPGKTARITCGGNNIGSKSVHWYQQKPGQAPVLVIYYDSDRPSGIPERFSGSNSGNTATLTISRVEAGDEADYYCQVWDSSSDHPVFGGGTKLTVL
Regarding B14, the binding result (with SARS spike S1 subunit; in test [2]; in test [3]; in test [4]; in test [5]) was “no binding” throughout.

B15: FN 8C (antibody, V domains shown)
VH: QVQLVESGGGVVQPGRSLRLSCAASGFTFSSYGMHWVRQAPGKGLEWVAVISYDGSNKYYADTVKGRFTISRDNSKNTLYLQMNSLRAEDTAVYYCARERTYYDILTGYRHYYGMDVWGQGTTVTVSS
VL: SYELTQPPSVSVAPGQTARITCGGNNIGSKSVHWYQQKPGQAPVLVVYDDSDRPSGIPERFSGSNSGNTATLTISRVEAGDEADYYCQVWDSSSDHWVFGGGTKLTVL
On to B15, for which the binding result (with SARS spike S1 subunit; in test [2]; in test [3]; in test [4]; in test [5]) was “no binding” each time.

B16: FD 11D (antibody, V domains shown)
VH: EVQLVESGGGVVQPGRSLRLSCAASGFTFSSYGMHWVRQAPGKGLEWVAVISYDGSNKYYADSVKGRFTISRDNSKNTLYLQMNSLRAEDTAVYYCAKEGAGSGWYRHHKPGYYFDYWGQGTLVTVSS
VL: not shown
Consider B16, for which the binding result is listed as “binds” with SARS spike S1 subunit; “no binding” in test [2]; “no binding” in test [3]; “binds” in test [4]; “binds” in test [5].

B17: EZ 4C kappa (antibody, V domains shown)
VH: EVQLVESGPGLVKPSETLSLTCTVSGGSVSSGNNYWSWIRQPPGKALEWIGYIYYSGSTKYNPSLKSRVTMSVGTSKNQFSLKVNSVTAADTAMYYCARAPSAPFGGLFDWILPKGINNWGQGTLVTVSS
VL: EIVLTQSPSTLSASVGDRVTITCRTSQSIRSWLAWYQQKPGKAPKLLIFEASTLESGVPERFSGSGSGAEFTLTISSLQPDDFATYYCQQYNGYSYSFGQGTKVEIR
notes: also called EZ 4C-1
B17: in test [6], the binding result is reported as “binds”.
